From US11306156

What was measured:
[1] = molecular target: tissue factor (TF) antigen (UniProt P13726); experiment: SPR, Fab captured on anti-penta His, TF injected
[2] = molecular target: tissue factor (TF) antigen (UniProt P13726); experiment: SPR, Fab captured on anti-penta His surface, TF as analyte, 1:1 fit
[3] = molecular target: tissue factor (TF) antigen (UniProt P13726); experiment: SPR (ProteOn), Fab captured on anti-penta-His, TF analyte, 1:1 fit
[4] = molecular target: tissue factor (TF) antigen (UniProt P13726); experiment: SPR KD against wild-type D3H44 Fab (reference KD 0.157 nM)
[5] = molecular target: tissue factor (TF) antigen (UniProt P13726); experiment: SPR, Fab captured on anti-penta-His, TF as analyte, 1:1 fit

Sequence of tissue factor (TF) antigen (P13726 33-251 limits assumed): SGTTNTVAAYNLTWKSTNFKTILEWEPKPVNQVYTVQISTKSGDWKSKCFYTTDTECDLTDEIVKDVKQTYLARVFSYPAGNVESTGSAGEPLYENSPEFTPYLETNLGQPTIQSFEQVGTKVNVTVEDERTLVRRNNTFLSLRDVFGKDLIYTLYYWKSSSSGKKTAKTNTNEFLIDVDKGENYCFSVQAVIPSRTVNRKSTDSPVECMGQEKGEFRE

Substance | Change in KD with respect to wild type (-(log(KD design) - log(KD wt))) [1] | Kd [1] [pM] | Change in KD with respect to wild type (-(log(KD design) - log(KD wt))) [2] | Kd [2] [pM] | other results
D3H44 Fab heterodimer H L124R_S186K / L V133G_S176D_T178E_T180E (H1L1 Fab of LCCA Set # 9489) | -0.17 | 230 |  |  | 
D3H44 Fab heterodimer H L124E_L143E_K145M / L Q124K_V133G_Q160K_S176R (H1L1 Fab of LCCA Set # 9247) | -0.26 | 280 |  |  | 
D3H44 Fab heterodimer, H1L1 of LCCA Set # 9818 (H1 Q39E_L143E_K145T_H172R; L1 Q38R_Q124R_Q160K_T178R) |  |  | -0.07 | 180 | 
D3H44 Fab heterodimer, H: Q179R, L: Q124E_T178E_T180E (H1L1 Fab of LCCA set 9812) |  |  |  |  | Kd [3]: 160 pM; Change in KD with respect to wild type (-(log(KD design) - log(KD wt))) [4]: -0.01
D3H44 Fab heterodimer H L124E_L143E_K145M / L Q124K_V133G_S176R_T178R (H1L1 Fab of LCCA Set # 9270) | -0.29 | 310 |  |  | 
D3H44 Fab heterodimer H L124E_L143D_K145M / L Q124K_V133G_Q160K_S176R (H1L1 Fab of LCCA Set # 9170) | -0.24 | 270 |  |  | 
D3H44 Fab heterodimer, H: A139C_L143E_K145T_Q179E, L: F116C_Q124R_T178R (H1L1 Fab of LCCA set 9049) |  |  |  |  | Kd [3]: 160 pM; Change in KD with respect to wild type (-(log(KD design) - log(KD wt))) [4]: -0.01
D3H44 Fab heterodimer, H: Q179K, L: Q124E_T180E (H1L1 Fab of LCCA sets 9787, 9792 and 9794) |  |  |  |  | Kd [3]: 110 pM; Change in KD with respect to wild type (-(log(KD design) - log(KD wt))) [4]: 0.16
D3H44 Fab heterodimer, H: S186K, L: Q124E_T180E (H1L1 Fab of LCCA sets 9853 and 9858) |  |  |  |  | Kd [3]: 60 pM; Change in KD with respect to wild type (-(log(KD design) - log(KD wt))) [4]: 0.46
D3H44 Fab heterodimer H L124R_S186K / L Q124E_V133G_S176D_T178D_T180E (H1L1 Fab of LCCA Set # 9461) | -0.23 | 260 |  |  | 
D3H44 Fab heterodimer, H: S186R, L: Q124E_T180E (H1L1 Fab of LCCA sets 9891, 9893, 9896 and 9898) |  |  |  |  | Kd [3]: 70 pM; Change in KD with respect to wild type (-(log(KD design) - log(KD wt))) [4]: 0.36
D3H44 Fab heterodimer H L124E_L143D_K145T / L Q124K_V133G_S176R_T178R (H1L1 Fab of LCCA Set # 9229, 9225, 9228) | -0.02 | 160 |  |  | 
D3H44 Fab heterodimer, H: S186R, L: Q124E_T178E_T180E (H1L1 Fab of LCCA set 9890) |  |  |  |  | Kd [3]: 50 pM; Change in KD with respect to wild type (-(log(KD design) - log(KD wt))) [4]: 0.49
D3H44 Fab heterodimer H L124R_D146N_Q179K / L Q124E_V133G_S176D_T178E_T180E (H1L1 Fab of LCCA Set # 9350, 9351) | -0.1 | 200 |  |  | 
D3H44 Fab heterodimer, H: L124A_L143F_Q179K, L: Q124E_V133W_S176T_T178E_T180E (H1L1 Fab of LCCA set 9092) |  |  |  |  | Kd [3]: 160 pM; Change in KD with respect to wild type (-(log(KD design) - log(KD wt))) [4]: -0.02
D3H44 Fab heterodimer, H: L143E_K145T_Q179E, L: Q124R_Q160K_T178R (H1L1 Fab of LCCA set 9654) |  |  |  |  | Kd [3]: 150 pM; Change in KD with respect to wild type (-(log(KD design) - log(KD wt))) [4]: 0.02
D3H44 Fab heterodimer, H: L143E_K145T_Q179E, L: Q124K_T178R (H1L1 Fab of LCCA set 9648) |  |  |  |  | Kd [3]: 140 pM; Change in KD with respect to wild type (-(log(KD design) - log(KD wt))) [4]: 0.05
D3H44 Fab heterodimer H L124E_L143E_K145T / L Q124K_V133G_Q160K_S176R (H1L1 Fab of LCCA Set # 9275) | -0.12 | 200 |  |  | 
D3H44 Fab heterodimer, H1L1 of LCCA Sets # 9752 and 10552 (H1 L45P_L143E_K145T_H172R; L1 P44F_Q124R_Q160K_T178R) |  |  | -0.27 | 290 | 
D3H44 Fab heterodimer H L124R_Q179K / L Q124E_V133G_S176D_T178E_T180E (H1L1 Fab of LCCA Set # 9384, 9388) | -0.15 | 220 |  |  | 
D3H44 Fab heterodimer H L124E_L143D_K145M / L Q124K_V133G_S176R_T178K (H1L1 Fab of LCCA Set # 9178, 9179) | -0.15 | 220 |  |  | 
D3H44 Fab heterodimer, H1L1 of LCCA Sets # 9558 and 9559 (H1 L124W_L143E_K145T_Q179E; L1 Q124K_V133A_S176T_T178R) |  |  | -0.24 | 270 | 

Substance | Change in KD with respect to wild type (-(log(KD design) - log(KD wt))) [1] | Kd [1] [pM] | Change in KD with respect to wild type (-(log(KD design) - log(KD wt))) [2] | Kd [2] [pM] | other results
D3H44 Fab heterodimer, H1L1 of LCCA Set # 9099 (H1 L124A_Q179K; L1 Q124E_V133W_S176T_T178L_T180E) |  |  | -0.09 | 190 | 
D3H44 Fab heterodimer, H1L1 of LCCA Set # 9817 (H1 Q39E_L143E_K145T; L1 Q38R_Q124R_Q160K_T178R) |  |  | -0.05 | 180 | 
D3H44 Fab heterodimer H L124R_Q179K / L V133G_S176D_T178E_T180E (H1L1 Fab of LCCA Set # 9426) | -0.16 | 230 |  |  | 
D3H44 Fab heterodimer, H1L1 of LCCA Set # 9760 (H1 Q179K; L1 Q124E_Q160E_T180E) |  |  | -0.31 | 320 | 
D3H44 Fab heterodimer, H L124E_L143E_K145M / L Q124K_V133G_S176R_T178R |  |  |  |  | Change in KD with respect to wild type (-(log(KD design) - log(KD wt))) [5]: -0.29; Kd [5]: 310 pM
D3H44 Fab heterodimer, H L124R_S186R / L V133G_S176D_T178E_T180E |  |  |  |  | Change in KD with respect to wild type (-(log(KD design) - log(KD wt))) [5]: -0.15; Kd [5]: 220 pM
D3H44 Fab heterodimer, H1L1 of LCCA Set # 9822 (H1 Q39R_D146G_Q179K; L1 Q38E_Q124E_Q160E_T180E) |  |  | 0.17 | 110 | 
D3H44 Fab heterodimer, H1L1 of LCCA Set # 9754 (H1 L45P_L143E_K145T_Q179E; L1 P44F_Q124R_Q160K_T178R) |  |  | -0.28 | 300 | 
D3H44 Fab heterodimer, H1L1 of LCCA Set # 9819 (H1 Q39E_L143E_K145T_H172R_Q179E; L1 Q38R_Q124R_Q160K_T178R) |  |  | 0.03 | 150 | 
D3H44 Fab heterodimer, H1L1 of LCCA Sets # 9076, 9077 and 9078 (H1 H172T_Q179K; L1 Q124E_N137K_Q160E_S174R_T180E) |  |  | 0.01 | 150 | 
D3H44 Fab heterodimer, H1L1 of LCCA Set # 9074 (H1 H172R_Q179K; L1 Q124E_Q160E_T180E) |  |  | -0.01 | 160 | 
D3H44 Fab heterodimer, H1L1 of LCCA Sets # 9560 and 9561 (H1 L124W_L143E_K145T_Q179E; L1 Q124R_V133A_S176T_T178R) |  |  | -0.13 | 210 | 
D3H44 Fab heterodimer, H1L1 of LCCA Set # 9823 (H1 Q39R_H172R_Q179K; L1 Q38E_Q124E_Q160E_T180E) |  |  | -0.18 | 240 | 
D3H44 Fab heterodimer, H L124E_L143D_K145M / L Q124K_V133G_S176R_T178K |  |  |  |  | Change in KD with respect to wild type (-(log(KD design) - log(KD wt))) [5]: -0.15; Kd [5]: 220 pM
D3H44 Fab heterodimer, H L124E_L143D_K145T / L Q124K_V133G_S176R_T178R |  |  |  |  | Change in KD with respect to wild type (-(log(KD design) - log(KD wt))) [5]: -0.02; Kd [5]: 150 pM
D3H44 Fab heterodimer, H1L1 of LCCA Set # 9820 (H1 Q39E_L143E_K145T_Q179E; L1 Q38R_Q124R_Q160K_T178R) |  |  | -0.1 | 200 | 
D3H44 Fab heterodimer H L124R_S186K / L V133G_S176D_T178D_T180E (H1L1 Fab of LCCA Set # 9473) | -0.07 | 180 |  |  | 
D3H44 Fab heterodimer H L124R_D146N_Q179K / L V133G_S176D_T178E_T180E (H1L1 Fab of LCCA Set # 9359) | -0.01 | 160 |  |  | 
D3H44 Fab heterodimer, H1L1 of LCCA Sets # 9094, 9095 and 9096 (H1 L124A_L143F_Q179K; L1 Q124E_V133W_S176T_T178L_T180E) |  |  | -0.04 | 170 | 
D3H44 Fab heterodimer H L124E_L143D_K145T / L Q124K_V133G_S176R_T178K (H1L1 Fab of LCCA Set # 9220, 9216) | -0.08 | 190 |  |  | 
D3H44 Fab heterodimer H L124E_H172T / L V133G_N137K_S174R_S176R (H1L1 Fab of LCCA Set # 9121) | 0.08 | 130 |  |  | 
D3H44 Fab heterodimer, H1L1 of LCCA Sets # 9090, 9091 and 9092 (H1 L124A_L143F_Q179K; L1 Q124E_V133W_S176T_T178E_T180E) |  |  | -0.02 | 160 | 
